Positions count from the first letter of the chain named.
B1: L1-21: library L1 hit with reverse repressor activity (SEQ ID NO: 1206-1213) (protein)
chain: MGSRLDKSKVINSALELLNEVGIEGLTTRKLAQKLGVEQPTLYWHVKNKRALLDALAIEMLDRHATHFCPLEGESWQDFLRNNAKSFRCALLSHRDGAKVCLGTAGTEKQYETLENCLAFLCQQGFSLENALYARSAVVCFTLGCVLFDQEMQVAKEERETPTTDSMPPLLRQAAELLDHQGAEPAFLFGLELIICGLEKQLKCESGS
modifications: rSuR L1-21
B2: L1-25: library L1 hit with reverse repressor activity (SEQ ID NO: 1206-1213) (protein)
chain: MGSRLDKSKVINSALELLNEVGIEGLTTRKLAQKLGVEQPTLYWHVKNKRALLDALAIEMLDRHATHFCPLEGESWQDFLRNTAKSMRCALLSHRDGAKVLLGTATTEKQYETLENLLAFLYQQGFSLENALYAWQAVWRFTLGCVLIDQETQVAKEERETPTTDSMPPLLRQAVELKDHQGAEPAFLFGLELIICGLEKQLKCETGS
modifications: rSuR L1-25
B3: L1-33: library L1 hit with reverse repressor activity (SEQ ID NO: 1206-1213) (protein)
chain: MGSRLDKSKVINSALELLNEVGIEGLTTRKLAQKLGVEQPTLYWHVKNKRALLDALAIEMLDRHATHFCPLEGESWQDFLRNNAKSMRCALLSHRDGAKVQLGTAATEKQYETLENKLAFLCQQGFSLENALYAHSAVTQFTLGCVLRDQEGQVAKEERETPTTDSMPPLLRQARELRDHQGAEPAFLFGLELIICGLEKQLKCESGS
modifications: rSuR L1-33
B4: L6-1B03 (protein)
chain: MGSRLDKSKVINSALELLNEVGIEGLTTRKLAQKLGVEQPTLYWHVKNKRALLDALAIEMMDRHATHICPLEGESWQDFLRNNAKSMRCALLSHRDGAKVCLGTRWTEQQYEAAENMLAFLCQQGFSLENALYAVSAVRVFTLGCVLFDQESQVAKEERETPTTASMPPLLRQAWELKDHQGAEPAFLFGLELIICGLEKQLKCESGS
modifications: Sulfonylurea responsive repressor L6-1B03
B5: L6-2C09 (protein)
chain: B4 chain with A65Q, I68Y, N83T, Q110L, A113T, M117Q, V135M, S152L
modifications: Sulfonylurea responsive repressor L6-2C09
B6: L6-3H02: SuR polypeptide, SEQ ID NO: 94 (protein)
chain: B4 chain with I68Y, N83T, Q110H, A113S, L171V, D179V
modifications: Sulfonylurea responsive repressor L6-3H02
B7: L6-2D07 (protein)
chain: B4 chain with A65Q, I68F, N83T, A113T, V135M, L171V
modifications: Sulfonylurea responsive repressor L6-2D07
B8: L1-34: library L1 hit with reverse repressor activity (SEQ ID NO: 1206-1213) (protein)
chain: MGSRLDKSKVINSALELLNEVGIEGLTTRKLAQKLGVEQPTLYWHVKNKRALLDALAIEMADRHNTHFCPLEGESWQDFLRNAARSMRCALLSHRDGAKVYLGTARTEKQYETTENVLAFLCQQGFSLENALYAVRAVPRFTLGCVLLDQERQVAKEERETPTTDSMPPLLRQARELTDHQGAEPAFLFGLELIICGLEKQLKCESGS
modifications: rSuR L1-34
B9: L1-18: library L1 hit with reverse repressor activity (SEQ ID NO: 1206-1213) (protein)
chain: MGSRLDKSKVINSALELLNEVGIEGLTTRKLAQKLGVEQPTLYWHVKNKRALLDALAIEMLDRHLTHFCPLEGESWQDFLRNNAKSMRCALLSHRDGAKVWLGTGFTEKQYETKENRLAFLCQQGFSLENALYAIRAVSRFTLGCVLQDQEPQVAKEERETPTTDSMPPLLRQAVELFDHQGAEPAFLFGLELIICGLEKQLKCESES
modifications: rSuR L1-18

System: lacZ under control of the tetA promoter (PtetA) in E. coli KM3
Format: cell-based
Conditions: for relative β-galactosidase activity, inducer atc / relative β-galactosidase activity, inducer Ci / relative β-galactosidase activity, inducer Cs / relative β-galactosidase activity, inducer Es / relative β-galactosidase activity, inducer Ms / relative β-galactosidase activity, inducer Ns / relative β-galactosidase activity, inducer Rs / relative β-galactosidase activity, inducer Sm / relative β-galactosidase activity, inducer Ts / relative β-galactosidase activity, inducer Tb: Table 6, reverse repressor hits; for relative β-galactosidase activity, inducer atc: anhydrotetracycline (0.4 μM); for relative β-galactosidase activity, inducer Ci: chlorimuron; for relative β-galactosidase activity, inducer Ci / relative β-galactosidase activity, inducer Cs / relative β-galactosidase activity, inducer Es / relative β-galactosidase activity, inducer Ms / relative β-galactosidase activity, inducer Ns / relative β-galactosidase activity, inducer Rs / relative β-galactosidase activity, inducer Sm / relative β-galactosidase activity, inducer Ts / relative β-galactosidase activity, inducer Tb: same plate assay format (20 ppm); for relative β-galactosidase activity, inducer Cs: chlorsulfuron; for relative β-galactosidase activity, inducer Es: ethametsulfuron; for relative β-galactosidase activity, inducer Ms: metsulfuron; for relative β-galactosidase activity, inducer Ns: nicosulfuron; for relative β-galactosidase activity, inducer Rs: rimsulfuron; for relative β-galactosidase activity, inducer Sm: sulfometuron; for relative β-galactosidase activity, inducer Ts: thifensulfuron; for relative β-galactosidase activity, inducer Tb: tribenuron; for 0.2 ppm 48 hr (colony color intensity, induction by chlorsulfuron): 0.2 ppm chlorsulfuron as inducer, 48 hr at 30° C.; for 0.2 ppm 48 hr (colony color intensity, induction by chlorsulfuron) / Control 84 hr (background activity, no inducer): M9 assay plates, ImageJ colony color intensity; for Control 84 hr (background activity, no inducer): 84 hr at 30° C.

Row | Molecule | relative β-galactosidase activity, inducer atc | relative β-galactosidase activity, inducer Ci | relative β-galactosidase activity, inducer Cs | relative β-galactosidase activity, inducer Es | relative β-galactosidase activity, inducer Ms | relative β-galactosidase activity, inducer Ns | relative β-galactosidase activity, inducer Rs | relative β-galactosidase activity, inducer Sm | relative β-galactosidase activity, inducer Ts | relative β-galactosidase activity, inducer Tb | 0.2 ppm 48 hr/Control 84 hr | 0.2 ppm 48 hr (colony color intensity, induction by chlorsulfuron) | Control 84 hr (background activity, no inducer)
1 | B1 | 2.81 | 0.07 | 0.89 | 0.61 | 0.89 | 2.74 | 2.31 | 2.39 | 0.79 | 2.13 |  |  | 
2 | B2 | 1.22 | 0.11 | 0.28 | 0.13 | 0.32 | 1.21 | 1.08 | 0.63 | 0.64 | 1.72 |  |  | 
3 | B3 | 8.25 | 0.76 | 3.74 | 2.11 | 4.29 | 5.34 | 10.32 | 5.02 | 5.51 | 4.71 |  |  | 
4 | B4 |  |  |  |  |  |  |  |  |  |  | 4.6 | 30.0 | 6.6
5 | B5 |  |  |  |  |  |  |  |  |  |  | 2.6 | 13.6 | 5.2
6 | B6 |  |  |  |  |  |  |  |  |  |  | 2.8 | 15.8 | 5.6
7 | B7 |  |  |  |  |  |  |  |  |  |  | 3.4 | 20.0 | 5.8
8 | B8 | 3.68 | 0.43 | 0.85 | 1.33 | 1.47 | 2.91 | 2.30 | 2.00 | 2.97 | 2.26 |  |  | 
9 | B9 | 2.35 | 0.36 | 1.22 | 0.37 | 0.79 | 1.44 | 2.55 | 0.94 | 1.13 | 1.65 |  |  | 

— patent publication US9206432B2, “Sulfonylurea-responsive repressor proteins” (priority 2008, dated 2015)
